Consider 1 substance from PMC3031564, “Tartronate Semialdehyde Reductase Defines a Novel Rate-Limiting Step in Assimilation and Bioconversion of Glycerol in Ustilago maydis” (PLoS ONE, 2011).

Holding throughout (experiment): purified protein
What all share (assay type): biochemical, Mycosarcoma maydis

Data set [1] concerns NC(=O)c1ccc[n+]([C@@H]2O[C@H](COP(=O)(O)OP(=O)(O)OC[C@H]3O[C@@H](n4cnc5c(N)ncnc54)[C@H](OP(=O)(O)O)[C@@H]3O)[C@@H](O)[C@H]2O)c1. The note with it: oxidation, co-substrate D-glycerate, 40°C, assay buffer 50 mM glycine pH 8.5, pH 8.5, varied: cofactor.
Data set [2] concerns NC(=O)C1=CN([C@@H]2O[C@H](COP(=O)(O)OP(=O)(O)OC[C@H]3O[C@@H](n4cnc5c(N)ncnc54)[C@H](O)[C@@H]3O)[C@@H](O)[C@H]2O)C=CC1. The note with it: reduction, co-substrate tartronic semialdehyde, 40°C, varied: cofactor.
Data set [3] deals with O=CC(O)C(=O)O. The note with it: reduction, cofactor NADH, 40°C, substrate made by enolization of lithium hydroxypyruvate (about 50% conversion, quantified by HPLC).
Data set [4] has as its system O=C(O)[C@H](O)CO. As to conditions: oxidation, 40°C, assay buffer 50 mM glycine pH 8.5, cofactor not stated for this row, pH 8.5.

Take “rTsr1 (Um02592, tartronate semialdehyde reductase) (Mycosarcoma maydis; E78D)”: the Km was found to be 0.30 ± 0.04 µM in data set [1], 14.29 ± 3.1 µM in data set [2], 190 ± 30 µM in data set [3] and 17700 ± 2300 µM in data set [4]. In addition, the Vmax in data set [1] worked out at 0.93 µmol/min/mg; in data set [2] it was 5.07 µmol/min/mg; in data set [3], 0.17 µmol/min/mg; in data set [4], 1.14 µmol/min/mg.
